Data on four molecules can be found in patent US20150166671A1 (CHILDREN S MEDICAL CENTER, published 2015).

One series concerns the target T1, KRM2N-FLAG-6xHIS (human, UniProt Q8NCW0 26-364).
T1 construct: extracellular domain; Negative control; also called human Kremen2; not shown: carboxyl FLAG tag and 6xHIS tag
T1 sequence (looked up): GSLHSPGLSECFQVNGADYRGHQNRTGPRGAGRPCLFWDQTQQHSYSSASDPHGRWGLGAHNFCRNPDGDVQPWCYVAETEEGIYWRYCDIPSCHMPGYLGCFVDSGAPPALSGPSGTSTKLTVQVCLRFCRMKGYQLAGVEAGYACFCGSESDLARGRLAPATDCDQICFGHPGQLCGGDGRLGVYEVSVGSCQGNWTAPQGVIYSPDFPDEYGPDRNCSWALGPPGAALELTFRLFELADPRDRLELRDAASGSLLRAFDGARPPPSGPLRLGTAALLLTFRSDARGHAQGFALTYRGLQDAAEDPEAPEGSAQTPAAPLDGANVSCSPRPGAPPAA
In words: co-immunoprecipitation from CM with an anti-FLAG antibody, Western blotting. From the text:
(Y-BB) TIKI2, but not KRM2, interacts with Wnt3a, Xwnt8-Myc, Wnt5a, and Xwnt11. Wnt proteins were each co-expressed with KRM2N or TIKI2N (FLAG tagged) and CM were subjected to immunoprecipitation with an anti-FLAG antibody and Western blotting with indicated antibodies.
The rabbit polyclonal anti-LRP6 antibody has been described (Tamai et al., 2004). Other antibodies were used according to manufacturer's instructions. From Cell Signaling: the rabbit monoclonal anti-Wnt3a (#2721, 1:1000), anti-HA (#3724, 1:1000), anti-Wnt5a (#2530, 1:1000) and anti-FLAG (#8146, 1:2000), from Santa Cruz: anti-Dv12 (sc-13974, 1:1000), anti-HA (sc-7392, 1:1000), and anti-Myc (sc-40, 1:500), from BD Transduction Laboratories: anti-beta-catenin (610154, 1:2000), From Hybridoma Bank: anti-tubulin (E7, 1:5000). Anti-FLAG M2 (A2220) and anti-HA (A2095) Affinity gels are from Sigma Immunoblotting was performed as previously described (MacDonald et al., 2008). For indirect immunofluorescence experiments, HeLa cells were plated on glass coverslips in 12-well plates and transfected with HA*Tiki1 expression construct. To visualize Tiki1 proteins on the cell surface, live cells were incubated with the anti-HA antibody in the culture medium for 30 min. The coverslip was washed with PBS and fixed with 4% paraformaldehyde in PBS for 10 min at room temperature. […]
(In general: Immunoblotting shows a protein as a band on a membrane.)

The target in series [1] is T2, recombinant human WNT3A, P56704.
T2 chain: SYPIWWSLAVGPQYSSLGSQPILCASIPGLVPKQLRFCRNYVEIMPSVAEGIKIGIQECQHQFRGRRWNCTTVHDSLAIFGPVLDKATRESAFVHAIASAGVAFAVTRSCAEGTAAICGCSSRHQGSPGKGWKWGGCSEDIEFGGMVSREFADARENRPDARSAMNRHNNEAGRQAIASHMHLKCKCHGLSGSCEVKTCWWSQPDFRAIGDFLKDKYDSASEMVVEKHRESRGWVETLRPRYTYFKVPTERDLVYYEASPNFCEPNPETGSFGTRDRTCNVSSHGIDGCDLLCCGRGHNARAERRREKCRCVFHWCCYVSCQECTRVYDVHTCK

B1: Xwnt11 (ligand, Xenopus, UniProt P49893 23-353, looked up)
chain: IQWLGLTVNGSRVAWNESEHCRLLDGLVPDQSQLCKRNLELMQSVVNAAKQTKLTCQMTLSDMRWNCSSVENAPSFTPDLSKGTRESAFVYALASATLSHTIARACASGELPTCSCGATPAEVPGTGFRWGGCGDNLHYGLNMGSAFVDAPMKSSKSAGTQATKIMNLHNNAVGRQVLMDSLETKCKCHGVSGSCSVKTCWKGLQDLPHIANELKSKYLGATKVIHRQTGTRRQLVPRELDIRPVRESELVYLVSSPDYCTKNPKLGSYGTQDRLCNKTSVGSDSCNLMCCGRGYNAYTETIVERCQCKYHWCCYVMCKKCERTVERYVCK
With B1, in the series with KRM2N-FLAG-6xHIS, the binding result is recorded as “no binding”.

B2: TIKI2N-FLAG-6xHIS (protein)
chain: RPQPPDGGQCRPPGSQRDLNSFLWTIRRDPPAYLFGTIHVPYTRVWDFIPDNSKAAFQASTRVYFELDLTDPYTISALASCQLLPHGENLQDVLPHELYWRLKRHLDYVKLMMPSWMTPAQRGKGLYADYLFNAIAGNWERKRPVWVMLMVNSLTERDVRFRGVPVLDLYLAQQAEKMKKTTGAVEQVEEQCHPLNNGLNFSQVLFALNQTLLQQESVRAGSLQASYTTEDLIKHYNCGDLSAVIFNHDTSQLPNFINTTLPPHEQVTAQEIDSYFRQELIYKRNERMGKRVMALLRENEDKICFFAFGAGHFLGNNTVIDILRQAGLEVDHTPAGQAIHSPAPQSPAPSPEGTSTSPAPVTPAAAVPEAPSVTPTAPPEDEDPALSPHLLLPDSLSQLEEFGRQRKWHKRQSTHQRPRQFNDLWVRIEDSTTASPPPLPLQPTHSSGTAKPPFQLSDQLQQQDPPG
Regarding B2, the “in vitro cleavage, mass spectrometry” value in series [1] is “MS analyses of recombinant human WNT3A cleaved by TIKI2N in vitro indicated cleavage at identical (major and minor) amino terminal sites as observed in cells”. Further, in the series with HA-Wnt3a, the “in vitro cleavage of purified HA-Wnt3a by purified protein (Western blotting)” value was “upon in vitro incubation with purified HA-Wnt3a, triggered Wnt3a cleavage and the disappearance of the HA epitope”.

B3: TIKI2NΔ-FLAG-6xHIS (protein)
chain: RPQPPDGGQCRPPGSQRDLNSFLWTIRRDPPAYLFGTIHVPYTRVWDFIPDNSKAAFQASTRVYFELDLTDPYTISALASCQLLPHGENLQDVLPHELYWRLKRHLDYVKLMMPSWMTPAQRGKGLYADYLFNAIAGNWERKRPVWVMLMVNSLTERDVRFRGVPVLDLYLAQQAEKMKKTTGAVEQVEEQCHPLNNGLNFSQVLFALNQTLLQQESVRAGSLQASYTTEDLIKHYNCGDLSAVIFNHDTSQLPNFINTTLPPHEQVTAQEIDSYFRQELIYKRNERMGKRVMALLRENEDKICFFAFGAGHFLGNNTVIDILRQAGLEVDHTPAGQAIHSPAPQSPAPSPEGTSTSPAPVTPAAAVPEAPSVTPTAPPEDEDPALSPHLLLPDSLSQLEEFGRQRKWHKRQSTHQRPRQFNDLWVRIEDSTTASPPPLPLQPTHSSGTAKPPFQLSDQLQQQDPPG
For B3, in the series with HA-Wnt3a, the “in vitro cleavage of purified HA-Wnt3a by purified protein (Western blotting)” value is “failed to do so in the in vitro assay”.

B4: Xwnt8-Myc (ligand)
chain: AWSVNNFLMTGPKAYLTYSASVAVGAQNGIEECKYQFAWERWNCPESTLQLATHNGLRSATRETSFVHAISSAGVMYTLTRNCSMGDFDNCGCDDSRNGRIGGRGWVWGGCSDNAEFGERISKLFVDGLETGQDARALMNLHNNEAGRLAVKETMKRTCKCHGISGSCSIQTCWLQLAEFRDIGNHLKIKHDQALKLEMDKRKMRSGNSADNRGAIADAFSSVAGSELIFLEDSPDYCLKNISLGLQGTEGRECLQSGKNLSQWERRSCKRLCTDCGLRVEEKKTEIISSCNCKFHWCCTVKCEQCKQVVIKHFCARRERDSNMLNTKRKNRGHRR
notes: also called Xenopus wnt8; not shown: Myc tag
Turning to B4, the binding result with KRM2N-FLAG-6xHIS is reported as “no binding”.
